Laboratory results reported in the nanobody polyreactivity screen of Harvey et al. (2022).

Experiment: yeast display, Sf9 membrane polyspecificity reagent, FACS + sequencing; frameworks hold sequencing errors
Summary of the method: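 Sorting gates, low and high (top ~1%), were placed on anti-HA fluorescence to track expression and on streptavidin fluorescence to track reagent binding. A clone's polyreactivity label is taken from the gate it came out of. The reagent was 10% biotinylated, detergent-solubilized Sf9 membrane, applied for 1 hour at 4 °C to galactose-induced yeast display cells.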

| Sequence | polyreactivity (PSR sort gate) |
| --- | --- |
| QVQLVESGGGLVQAGGSLRLSCAASGSIFVDYAMGWSRPAPGKERELVVAISLSGGSTYYADSVKGRFTISRDNAKNTVYLQMNSLKPEDTAVYYCNAELIKGTYRWYEGGSQYGYWGHGTQVTVSS | low polyreactivity |
| QVQLVESGGGLVQAGGSLRLSCAASGSIFVDYAMGWYRPAPGNERELVADITSDGGSTDYADSVKGRFTISRDYAKNTVYLQMHSLNPEDTAVYDCAALKTQVLGVVEYGYDYWGQGTQVTVSS | high polyreactivity |
| QVQLVESGGGLVQAGGSLRLSCAASGSIFVDYAMGWYRQAPGKERELVAAITWRGDTTYYADSVKGRFTISRDNAKNTFYLQMNSLKPEDTAVYYCAAADPVGGEYWGQGTQVTVSS | low polyreactivity |
| QVQLVESGGGLVQAGGSLRLSCAASGSIFVFNAMGWYRQAPGKERELVAAISNGDGTNYADSVKGRFTISRDNAKNTVYLQMNSLKPEETAVYYCAAVWTTLIVIEYDYWGQGTQVTVSS | low polyreactivity |
| QVQLVESGGGLVQAGGSLRLSCAASGSIFVFYDMGWYRQAPGKERELVATISSGGGGTYYTDSVKGRFTISRDNAKNTVYLQMNSLKPEDTAVYYCAAEGDKYGKGDGYWGQGPQVTVSS | low polyreactivity |
| QVQLVESGGGLVQAGGSLRLSCAASGSIFVGFARGWYRQAPGKERELVAAISWSGDSTYYADSVKGRVTISRDNAKKTVYLQLNSLKPEDTAVYYCAVDYAEIGPRREVEYDYWGQGTQVTVSS | low polyreactivity |
| QVQLVESGGGLVQAGGSLRLSCAASGSIFVGNAMGWYRQAPGKERELVAAINSGGSTYYADSVKGRFTISRDNAKNTVYLQMNSLKPEDTAVYYCAAEGTYSYYLYEYWGLGTQVTVSS | low polyreactivity |
| QVQLVESGGGLVQAGGSLRLSCAASGSIFVGNVMGWYRQAPGKERELVAAISRTGGTYYADSVKGRFTISRDNAKNTVYLQMNSLKPEDTAVYYCNKVSLRQSRMYYWGQGTQVTVSS | high polyreactivity |
| QVQLVESGGGLVQAGGSLRLSCAASGSIFVGYAMGWYRQAPGKERELVAAISWSGDSTYYADSVKGRFTISRDNAKNTVYLQMNSLTPEDTAVYYCAVDYAEIGPRPEVEYDYWGQGTQVTVSS | low polyreactivity |
| QVQLVESGGGLVQAGGSLRLSCAASGSIFVGYAMGWYRQAPGKERELVAAISWSGDSTYYADSVKGRFTISRDTAKNTVYLQMNSLKPEDTAVYYCAVDYAEIGPRREVEYDYWGQGTQVTVSS | low polyreactivity |
| QVQLVESGGGLVQAGGSLRLSCAASGSIFVGYGAMGWYRQAPGKERELVAAITSGTSTYYADSVKGRFTISRDNAKNTVYLQMNSLKPEDTAVYYCAARGFLKYVTEFDYWGQGTQVTVSS | low polyreactivity |
| QVQLVESGGGLVQAGGSLRLSCAASGSIFVGYTMGWYRQAPGKERELVAAITRRGGSTYYADSVKGRFTISRDNAKNTVYLQMNSLKPEDTAVYYCAAEVRRYVIVPYYYWGQGTQLTVSS | high polyreactivity |
| QVQLVESGGGLVQAGGSLRLSCAASGSIFVHNAMGWYRQAPGKERELVAAITWSGGSTYYADSVKGRFTISRDNAKNTVYLQMNSLKPEDTAVYYCAAEDVAAQWAYESPTSYWYYYIYEYWGQGTQVTVSS | low polyreactivity |
| QVQLVESGGGLVQAGGSLRLSCAASGSIFVHYAMGWSRQAPGKERELVAAITTSGGSTYYADSVKGRFTISRDNAKNTVYLQMNSLKPEDTAVYYCNARAVRYPFTGNYWAQGTQVTVSS | high polyreactivity |
| QVQLVESGGGLVQAGGSLRLSCAASGSIFVINPMGWYRQAPGNERELVAAISDSGTGTYYADSVKGRFTISRDNAKNTVYLQMNSLKPEDTAVYYCAADYYYRYRIYDYWGQGTQVTASS | low polyreactivity |
| QVQLVESGGGLVQAGGSLRLSCAASGSIFVKYTMGWYRQAPGKERELVAAISFRGGSTYYADSVKGRFTISRDNAKNTVYLQINSLKPEDTAVYYCNADGGWWPEYYWGQGTQVTVSS | low polyreactivity |
| QVQLVESGGGLVQAGGSLRLSCAASGSIFVNNAMGWYRQAPGKERELVAAISSRGGSTYYADSVKGRFTISRDNAKNTVYLQMNSLKPEDTAVYYCAAEYDGPYYSFYPEQRYYWGQGTQVTVSS | low polyreactivity |
